US20250122303A1, “TREATMENT AND PREVENTION OF CANCER USING HER3 ANTIGEN-BINDING MOLECULES” (Hummingbird Bioscience Pte. Ltd., priority 2021, published 2025)
Entries after “also recorded” stand apart in the source; their conditions may differ.

Key:
[1] = target: T1, mouse HER3 (Mus musculus, UniProt Q61526); experiment: ELISA cross-reactivity, mouse HER3; type: binding
T1 construct: purchased Sino Biological Inc., China
Protocol: ELISAs were used to determine the binding specificity of the antibodies. The antibodies were analysed for binding to human HER3 polypeptide, as well as respective mouse, rat and monkey homologues of HER3 (Sino Biological Inc., China). The antibodies were also analysed for their ability to bind to human EGFR and human HER2 (Sino Biological Inc., China).
ELISAs were carried out according to standard protocols. Briefly, 96-well plates (Nunc, Denmark) were coated with 0.1 μg/ml of target polypeptide in phosphate-buffered saline (PBS) for 16 h at 4° C. After blocking for 1 h with 1% BSA in Tris buffer saline (TBS) at room temperature, the anti-HER3 antibody was serially diluted with the highest concentration being 10 μg/ml, and added to the plate. Post 1 h incubation at room temperature, plates were washed three times with TBS containing 0.05% Tween 20 (TBS-T) and were then incubated with a HRP-conjugated anti-His antibody (Life Technologies, Inc., USA) for 1 h at room temperature. After washing, plates were developed with colorimetric detection substrate 3,3′,5,5′-tetramethylbenzidine (Turbo-TMB; Pierce, USA) for 10 min. The reaction was stopped with 2M H2SO4, and OD was measured at 450 nm. […]

[2] = target: His-tagged human HER3 (Homo sapiens, UniProt P21860); experiment: BLI competition between anti-HER3 antibodies for binding to HER3
Protocol: Bio-Layer Interferometry (BLI) experiments were performed using the Octet QK384 system (ForteBio). anti-Penta-HIS (HIS1K) coated biosensor tips (ForteBio, USA) were used to capture His-tagged human HER3 (75 nM; 300 s). Binding by saturating antibody ([…]; 600 s) was detected, followed by a dissociation step (120s), followed by detection of binding with competing antibody (300 nM; 300 s), followed by a dissociation step (120s).
BLI experiments were performed as described in Example 3.5 with one alteration: 400 nM of competing antibodies were used. The variable regions of M-05-74 and M-08-11 antibodies were cloned in the PDZ vector having human IgG1 and IgKappa Fc backbone.

[3] = system: ACHN cell-line derived mouse model of renal cell carcinoma; experiment: ACHN cell-line derived xenograft model; type: in vivo; settings: IP biweekly 500 μg, 7 doses
Protocol: (§1) Tumor volumes were measured 3 times a week using a digital caliper and calculated using the formula [L ×W2/2]. Study End point was considered to have been reaches once the tumors of the control arm measured >1.5 cm in length.
The model was established by subcutaneous injection of 1×10^6 ACHN cells into the right flanks of female NCr nude mice (n=6 mice per treatment group).
10D1 was administered IP, biweekly at 500 μg per dose (for a total of 7 doses); a control treatment group received an equal volume of PBS.

[4] = system: OvCAR8 cell-line derived mouse model of ovarian carcinoma; experiment: OvCAR8 cell-line derived xenograft model; type: in vivo; settings: OvCAR8, IP biweekly 500 μg, 9 doses
Protocol: as §1
The model was established by subcutaneous injection of 1×10^6 OvCAR8 cells into the right flanks of female NCr nude mice (n=6 mice per treatment group).
10D1 was administered IP, biweekly at 500 μg per dose (for a total of 9 doses); a control treatment group received an equal volume of PBS.
(§2) Tumour cells were inserted with matrigel subcutaneously into the right flanks of female NCr nude mice.
Murine tumour efficacy studies were performed using cell-line derived xenograft (CDX) models in mice. Female NCr nude mice (5-8 weeks old, 21-29 g) were subcutaneously implanted with N87, A549, FaDu, OvCAR8 cells. Treatment was initiated when tumours reached approximately 100 to 200 mm^3. Vehicle (PBS) or therapeutic antibodies (25 mg/kg) were administered intraperitoneally (IP) at indicated time points (weekly FaDu and OvCAR8, twice weekly N87 and A549). Tumours were measured twice per week using a calliper and tumour volume (mm^3) was calculated. Each data point represents the mean tumour volume ±SEM (n=8 mice).

[5] = system: FaDu cell-line derived mouse model of head and neck squamous cell carcinoma; experiment: FaDu cell-line derived xenograft model; type: in vivo
Protocol: as §1
The model was established by subcutaneous injection of 1×10^6 FaDu cells into the right flanks of female NPG mice (NOD scid gamma phenotype; n=6 mice per treatment group).
10D1 was administered IP, weekly at 500 μg per dose (for a total of 4 doses). Control treatment groups received an equal volume of PBS, or the same dose of an isotype control antibody.
The model was established by subcutaneous injection of 1×10^6 FaDu cells into the right flanks of female NCr nude mice (n=6 mice per treatment group).
10D1 was administered IP, biweekly at 500 μg per dose (for a total of 8 doses); a control treatment group received an equal volume of PBS.
as §2
Murine tumour efficacy studies were performed using cell-line derived xenograft (CDX) models in mice. Female NCr nude mice (5-8 weeks old, 21-29 g) were subcutaneously implanted with N87, A549, FaDu, OvCAR8 cells. Treatment was initiated when tumours reached approximately 100 to 200 mm^3. […] Tumours were measured twice per week using a calliper and tumour volume (mm^3) was calculated. […]

[6] = system: HCC-95 cell-line derived mouse model of squamous cell lung carcinoma; experiment: HCC-95 cell-line derived xenograft model; type: in vivo; settings: HCC-95, IP biweekly 500 μg, 4 doses
Protocol: as §1
The model was established by subcutaneous injection of 1×10^6 HCC-95 cells into the right flanks of female NCr nude mice (n=6 mice per treatment group).
10D1 was administered IP, biweekly at 500 μg per dose (for a total of 4 doses); a control treatment group received an equal volume of PBS.

T1 sequence (Q61526 20-1339): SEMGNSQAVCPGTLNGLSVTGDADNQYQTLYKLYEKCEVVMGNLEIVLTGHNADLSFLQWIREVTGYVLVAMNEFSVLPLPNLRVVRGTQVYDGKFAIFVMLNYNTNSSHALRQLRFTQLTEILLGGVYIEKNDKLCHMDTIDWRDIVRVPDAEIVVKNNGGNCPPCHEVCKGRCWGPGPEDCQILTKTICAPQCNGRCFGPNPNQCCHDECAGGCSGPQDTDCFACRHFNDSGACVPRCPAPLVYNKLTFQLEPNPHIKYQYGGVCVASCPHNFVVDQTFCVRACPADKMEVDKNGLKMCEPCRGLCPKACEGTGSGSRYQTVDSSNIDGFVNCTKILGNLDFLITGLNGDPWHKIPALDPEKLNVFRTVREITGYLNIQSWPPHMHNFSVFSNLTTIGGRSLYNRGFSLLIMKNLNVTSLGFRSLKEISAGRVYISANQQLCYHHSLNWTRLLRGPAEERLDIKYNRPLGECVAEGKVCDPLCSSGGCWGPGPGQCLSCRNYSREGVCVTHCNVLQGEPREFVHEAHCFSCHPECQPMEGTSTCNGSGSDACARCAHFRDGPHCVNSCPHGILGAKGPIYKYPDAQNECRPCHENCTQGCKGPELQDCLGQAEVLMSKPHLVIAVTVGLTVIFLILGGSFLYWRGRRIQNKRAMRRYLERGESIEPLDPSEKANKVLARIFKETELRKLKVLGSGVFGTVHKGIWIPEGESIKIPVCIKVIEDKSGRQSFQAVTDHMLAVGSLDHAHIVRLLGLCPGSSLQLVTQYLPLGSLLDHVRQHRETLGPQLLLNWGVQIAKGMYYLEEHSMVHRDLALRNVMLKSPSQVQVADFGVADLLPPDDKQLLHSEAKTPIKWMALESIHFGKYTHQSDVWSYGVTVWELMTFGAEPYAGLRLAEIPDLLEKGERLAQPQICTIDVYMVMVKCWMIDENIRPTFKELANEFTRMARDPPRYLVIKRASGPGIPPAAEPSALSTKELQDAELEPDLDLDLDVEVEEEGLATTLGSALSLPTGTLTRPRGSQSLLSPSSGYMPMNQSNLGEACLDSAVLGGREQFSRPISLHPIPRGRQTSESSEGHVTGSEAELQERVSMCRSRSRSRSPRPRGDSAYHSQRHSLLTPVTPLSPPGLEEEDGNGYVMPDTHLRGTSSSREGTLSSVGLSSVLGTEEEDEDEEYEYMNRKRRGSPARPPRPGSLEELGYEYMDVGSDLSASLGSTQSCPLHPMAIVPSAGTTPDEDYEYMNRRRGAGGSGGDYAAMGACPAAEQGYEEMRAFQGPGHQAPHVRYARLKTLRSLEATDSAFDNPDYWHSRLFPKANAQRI

binding / cross-reactivity with mouse HER3 [1]: substantial cross-reactivity
B1: 10D1: anti-HER3 antibody clone, VH SEQ ID NO:24, VL SEQ ID NO:74; [1] of Example 2.2 (antibody, V domains shown)
VH: DVQLQESGPDLVKPSQSLSLTCTVTGYSITSGYSWHWIRQFPGNKLEWMGSIHYSGGTNYNPSLKSRISITRDTSKNQFFLQLNSVTTEDTATYFCARMTTAPRYPFDYWGQGTTLTVSS
VL: DIVMTQSQKFMSTSVGDRVSVTCKASQIVGSNVAWYQQKPGQSPKPLIYSASYRYSGVPDRFTASGSGTDFTLTITNVQSEDLAEYFCQQYSSHPLTFGAGTKLELK
competition with MM-121 and/or LJM-716 for binding to HER3 [2]: not to compete; also recorded: distinct and topologically distant epitope | inhibition of tumor growth [3]: ~61% | inhibition of tumor growth [4]: ~74% | inhibition of tumor growth ([5]; NCr nude mice, IP biweekly 500 μg, 8 doses): ~86% | inhibition of tumor growth ([5]; NPG mice, IP weekly 500 μg, 4 doses): ~85% | inhibition of tumor growth [6]: ~90%
